The values that follow come from patent US20260137799A1, “ANTI-MUC1* ANTIBODY DRUG COMPLEXES AND USES THEREOF” (Minerva Biotechnologies Corporation, priority 2023, published 2026).

Series [1] in a line: Toxicity in animal studies. The settings on record: each antibody incorporated into several ADC formats. The format is in vivo. An excerpt: Exatecans and deruxtecans can also have bystander effects. […] It is not completely clear whether these side effects are due to the payload or to the HER2 target, which is also expressed on normal lung and normal heart. The first two patients treated with a HER2 targeting CAR T cell product died shortly after the infusion. […] More recently, yet another patient died after being treated with a different HER2-targeting ADC. […] 32CB1, C2 and 20A10 unexpectedly have an extremely high degree of cancer specificity and elicited no toxicities in animal studies, where each antibody was incorporated into several ADC formats.

In series [2] the test system is H1975 lung cancer cells (H1975-wt). As to the kind of experiment: Antibody internalization (pHrodo Deep Red), H1975-wt. The format is cell-based, human. The settings on record: H1975-wt cells. Here is the method:
Antibodies C2 and 3C2B1 were tested for their ability to be internalized by H1975 lung cancer cells (H1975-wt) and H1975 cells that were engineered to express high levels of a recombinant MUC1* polypeptide with a 45 amino acid extracellular domain (H1975-MUC1*45). In contrast to the T47D breast cancer cells, H1975-wt cells internalized 3C2B1 faster than they internalized C2 (FIGS. 4A1-4A28, 4C1-4C28 and 4E). Two (2) hours post incubation with H1975-wt cells, […] the cells had internalized C2. […] Similar to the T47D cells, MUC1*45 expression increased the internalization rate of C2 and decreased the internalization rate of 3C2B1 (FIGS. 4B1-4B28, 4D1-4D28 and 4E).
Antibodies C2 and 3C2B1 were coupled to a pH sensitive fluorophore using the pHrodo Deep Red TFP Ester kit (Thermo cat #P35356), according to manufacturer instructions. Cancer cells were seeded at ˜50,000 cells/well onto μ-Slide 8-well tissue culture-treated, chambered coverslip wells (Ibidi 80806) in their recommended media with 10% FBS. Cells were cultured for 48 hours. Slides were transferred into microscope chamber (37° C.—5% CO2) and equilibrated for ˜30 minutes. The pHrodo Deep Red coupled antibody was then diluted to a concentration of 200 to 300 μg/mL into pre-warmed media supplemented with 10% FBS. Media was removed from the chamber slides and the diluted antibodies were separately added. Fluorescent (655 nm) and phase contrast images at were collected every 10 min for 12h or 16 h with a Leica Thunder Live Cell 3D microscope.
Internalization of the fluorescently labeled antibodies was quantified as follows. Images were imported into ImageJ. The selection tool was used to draw a region of interest (ROI) on the image. The integrated pixel density (mean gray-scale value×area) was then measured by the ImageJ software. Positively-stained cells were manually counted and the integrated pixel density was divided by the number of positive cells to yield “Pixel Intensity per positive cell”.

Series [3] relates to breast cancer specimens. As to the kind of experiment: IHC of tissue microarray, breast cancer. The format is binding, human. To be noted: 109 specimens, antibodies at 15 μg/mL. An excerpt:
(§1) Tissue microarrays are typically made up of hundreds of tissue specimens, where each specimen in the array comes from a different patient. The breast cancer array contained patient specimens of all types of invasive breast cancers, including less common forms such as carcinomas with medullary features and papillary carcinomas. The lung cancer array contained specimens from patients diagnosed with squamous cell carcinoma, adenocarcinoma, mucinous adenocarcinoma, adenosquamous carcinoma and large cell carcinoma. The pancreatic cancer tissue microarray contained specimens from patients with ductal adenocarcinomas.
Of the 109 breast cancer specimens, 56 stained positive with C2, 3C2B1, or both. Twenty-two (22) of the specimens stained robustly with C2 and stained less well or not at all with 3C2B1. The converse, 3C2B1 staining better than C2, was true in only 5 of the 109 specimens. Twenty-nine (29) specimens were stained essentially the same with C2 and 3C2B1 antibody.
Cancerous tissue arrays were purchased from Tissue Array (Derwood, MD). After deparaffinization, antigen retrieval (pH 6.0) was performed for 10 min. The sections incubated in blocking buffer (10% normal goat serum and 5% BSA in TBS) at room temperature for 1 hr before incubating in either C2 or 3C2B1 in 1% BSA-TBS overnight at 4° C. In this particular assay, both antibodies were used at a concentration of 15 μg/mL. […]

Series [4] addresses PSMGFR N-10 peptide (SEQ ID NO: 2) (Homo sapiens, UniProt P15941). The series is described as follows: ELISA binding to PSMGFR N-10 peptide. An excerpt:
(§2) Cancer selective anti-MUC1* antibodies bind to a membrane proximal conformational epitope within the MUC1* extracellular domain, as described in WO 2020/146902.
(§3) The 3C2B1 epitope was mapped more precisely with additional PSMGFR peptide variants (FIGS. 2A, 2B).
A general note: ELISA stands for enzyme-linked immunosorbent assay.

Series [5] deals with PSMGFR C-10 peptide (SEQ ID NO: 3) (Homo sapiens, UniProt P15941). As to the kind of experiment: ELISA binding to PSMGFR C-10 peptide.
Excerpt: as §2, §3

The target of series [6] is PSMGFR N-30 (SEQ ID NO: 157) (Homo sapiens, UniProt P15941). As to the kind of experiment: Epitope mapping, binding to PSMGFR N-30 peptide.
Excerpt: (§4) FIG. 2B quantifies binding of the 3C2B1 anti-MUC1* antibody to the peptides of FIG. 2A.
as §3

Series [7] has as its target PSMGFR N-19 C-5 (SEQ ID NO: 159) (Homo sapiens, UniProt P15941). The series is described as follows: Epitope mapping, binding to PSMGFR N-19 C-5 peptide.
Excerpt: as §4, §3

In series [8] the test system is T47D breast cancer cells (T47D-wt). The series is described as follows: Antibody internalization (pHrodo Deep Red), T47D-wt. The format is cell-based, human. The method, then:
Antibodies C2 and 3C2B1 were tested for their ability to be internalized by T47D breast cancer cells (T47D-wt) or T47D cells that were engineered to express high levels of a recombinant MUC1* polypeptide with a 45 amino acid extracellular domain (T47D-MUC1*45), as described in WO2010042562 and WO2010042891. […] C2 internalization was detected within 2.5 hours in T47D-wt cells (FIGS. 3A-3F) and was increased by MUC1*45 expression (FIGS. 3G-3L). […] Unexpectedly, MUC1*45 expression inhibited 3C2B1 internalization (FIG. 3S-3X).
Antibodies C2 and 3C2B1 were coupled to a pH sensitive fluorophore using the pHrodo Deep Red TFP Ester kit (Thermo cat #P35356), according to manufacturer instructions. Cancer cells were seeded at ˜50,000 cells/well onto μ-Slide 8-well tissue culture-treated, chambered coverslip wells (Ibidi 80806) in their recommended media with 10% FBS. Cells were cultured for 48 hours. Slides were transferred into microscope chamber (37° C.—5% CO2) and equilibrated for ˜30 minutes. […]
Internalization of the fluorescently labeled antibodies was quantified as follows. […] The integrated pixel density (mean gray-scale value×area) was then measured by the ImageJ software. Positively-stained cells were manually counted and the integrated pixel density was divided by the number of positive cells to yield “Pixel Intensity per positive cell”.

Series [9] deals with pancreatic cancer specimens. The series is described as follows: IHC of tissue microarray, pancreatic cancer. To be noted: 40 specimens, antibodies at 15 μg/mL. The format is binding, human.
Excerpt: as §1
Similar to the lung cancer results, antibody 3C2B1 stained pancreatic cancers better than C2. Of the 40 specimens from 40 different pancreatic cancer patients, 27 were positively stained by C2, 3C2B1, or both. Eighteen (18) stained more robustly with 3C2B1 than C2 or were not stained by C2 at all. One specimen stained slightly better with C2 and 8 specimens stained essentially the same with either antibody.
Cancerous tissue arrays were purchased from Tissue Array (Derwood, MD). After deparaffinization, antigen retrieval (pH 6.0) was performed for 10 min. The sections incubated in blocking buffer (10% normal goat serum and 5% BSA in TBS) at room temperature for 1 hr before incubating in either C2 or 3C2B1 in 1% BSA-TBS overnight at 4° C. […]

Sequence of PSMGFR N-10 peptide (SEQ ID NO: 2) (P15941 1120-1154 limits assumed): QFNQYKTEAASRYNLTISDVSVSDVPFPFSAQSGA
Sequence of PSMGFR N-19 C-5 (SEQ ID NO: 159) (P15941 1129-1149 limits assumed): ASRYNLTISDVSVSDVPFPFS
Sequence of PSMGFR C-10 peptide (SEQ ID NO: 3) (P15941 1110-1144 limits assumed): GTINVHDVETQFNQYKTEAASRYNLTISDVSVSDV

B1: 3C2B1: anti-MUC1* monoclonal antibody that bound to the PSMGFR peptide (antibody, V domains shown)
VH: EVMLVESGGGLVKPGGSLKLSCAASGITFSTYTMSWVRQTPEKRLEWVATISTGGDKTYYSDSVKGRFTISRDNAKNNLYLQMSSLRSEDTALYYCARGTTAMYYYAMDYWGQGTSVTVSS
VL: DIVLTQSPASLAVSLGQRATISCRASKSISTSDYNYIHWYQQKPGQPPKLLIYLASNLESGVPARFSGSGSGTDFTLNIHPVEEEDAATYYCQHSRELPLTFGAGTKLELK
For B1, the “toxicities in animal studies” value in [1] is “no toxicities”. In addition, the figures for the “internalization rate compared to C2” value in series [2] and in series [8] were “faster” and “internalized more slowly”, respectively. In [2], the “time by which essentially all the cells had internalized the antibody” value was not above 6 h. In addition, the “fraction of cells that had internalized antibody” value is “about one third” in [2] (2 hours post incubation) and “more than a half” in [2] (by 4 hours). In addition, the “3C2B1 > C2 (number of specimens stained better with 3C2B1)” value in series [3] is on record as 5; in series [9], 18. Besides, the “binding to PSMGFR N-10” value in series [4] is “bind”. Further, in [5], the “binding to PSMGFR C-10” value is reported as “do not bind”. For the same molecule, the “binding to N-30 variant PSMGFR peptide” value in series [6] is “bound”. In addition, the “binding to N-19 C-5 variant PSMGFR peptide” value in series [7] is “bound”.
